Test results published in patent publication US12416034B2, “Recombinant production of steviol glycosides” (EVOLVA SA, priority 2011, dated 2025).
Values belong to the molecule of their own block, whether it stands above or below them.

Tests used:
RebD solubility in water = type: physicochemical; settings: 30° C.
Procedure: The solubility of RebD was assessed by making several different solutions of RebD in water were made and incubated at 30° C. for 72 hours. […] One with skill in the art will recognize that the solubility can be influenced by any number of conditions such as pH, temperature, or different matrices.

[1] = Denaturation temperature by differential scanning calorimetry (DSC); type: physicochemical; settings: 6HIS-purified enzymes, 91D2e-b GST-purified
Procedure: To assess the thermal stability of EUGT11 and to compare it with the other UGTs in the steviol glycosylation pathway, denaturation temperatures of the proteins were determined using differential scanning calorimetry (DSC). Use of DSC thermograms to estimate denaturation temperatures, TD, is described, for example, by E. Freire in Methods in Molecular Biology 1995, Vol. 40 191-218. DSC was performed (using 6HIS-purified EUGT11, yielding an apparent TD of 39° C.; while when GST-purified 91D2e-b was used, the measured TD was 79° C. For reference, the measured TD when using 6HIS-purified UGT74G1, UGT76G1 and UGT85C2 was 86° C. in all cases. One of skill in the art will recognize that enzyme immobilization or addition of thermal protectants can be added to the reactions to improve stability of the protein. Non-limiting examples of thermal protectants include trehalose, glycerol, ammonium sulphate, betaine, trimethylamine oxide, and proteins.

[2] = Codon optimized UGT cell lysate assay, steviol as substrate; type: biochemical; settings: 0.25 mM steviol, 24 hours, 30° C.
Procedure: The wild-type, DNA 2.0, and GeneArt sequences were assayed for in vitro activity to compare reactivity on substrates in the steviol glycosides pathway. UGTs were inserted in high copy (2p) vectors and expressed from a strong constitutive promoter (GPD1) (vectors P423-GPD, P424-GPD, P425-GPD, and P426-GPD). The plasmids were transformed individually into the universal Watchmaker strain, EFSC301 (described in Example 3 of WO2011/153378) and assays were carried out using cell lysates prepared from equal amount of cells (8 OD units). For the enzymatic reactions, 6 μL of each cell lysate were incubated in a 30 μL reaction with 0.25 mM steviol (final concentration) to test UGT74G1 and UGT85C2 clones, and with 0.25 mM 13-SMG (13SMG) (final concentration) to test 76G1 and 91D2e UGTs. Assays were carried out for 24 hours at 30° C. Prior to LC-MS analysis, one volume of 100% DMSO was added to each reaction, samples were centrifuged at 16000 g, and the supernatants analysed.

[3] = Screening by LC-MS of E. coli lysates, rubusoside as substrate; type: biochemical
Procedure: (§1) To analyze the approximately 1600 mutant clones of UGT91D2e, the E. coli transformants were grown overnight at 30° C. in 1 ml of NZCYM containing ampicillin (100 mg/1) and chloramphenicol (33 mg/1), in 96-well format. The next day, 150 μl of each culture was inoculated into 3 ml NZCYM containing ampicillin (100 mg/1), chloramphenicol (33 mg/1), arabinose 3 mM, IPTG 0.1 mM and ethanol 2% v/v, in 24-well format, and incubated at 20° C. and 200 rpm for ˜20 h. The following day, cells were spun down and pellets were resuspended in 100 μl of lysis buffer containing 10 mM Tris-HCl pH 8, 5 mM MgCl2, 1 mM CaCl2) and complete mini protease inhibitor EDTA-free (3 tablets/100 ml) (Hoffmann-La Roche, Basel, Switzerland) and frozen −80° C. for at least 15 minutes to promote cell lysis. […] In each case, the resulting compounds, stevioside or rebaudioside D (rebD), were measured by LC-MS. Results were analyzed in comparison with the stevioside or rebD produced by the lysates expressing the corresponding controls (91D2e, 91D2e-b, EUGT11 and the empty plasmid). […]
(§2) Half of the 1600 clones and the corresponding controls were assayed for their capacity to glycosylate rubusoside and rebaudiosideA. Stevioside and RebD were quantified by LC-MS. […]

[4] = Enzyme kinetics with UDP-glucose as substrate; type: biochemical
Procedure: (§3) A series of experiments were performed to determine kinetic parameters of EUGT11 and 91D2e-b. For both enzymes, 100 μM RebA, 300 μM UDP-glucose, and 10 U/mL Alkaline Phosphatase (Fermentas/Thermo Fisher, Waltham, MA) were used in the reactions. For EUGT11, the reactions were performed at 37° C. using 100 mM Tris-HCl, pH 7, and 2% enzyme. For 91D2e-b, the reactions were performed at 30° C. using 20 mM Hepes-NaOH, pH 7.6, 20% (by volume) enzyme. The initial velocities (V0) were calculated in the linear range of a product versus time plot.
(§4) Vmax and KM parameters were determined from the curve-fit Lineweaver-Burk data, calculated from the x- and y intercepts (x=0, y=1/Vmax) and (y=0, x=−1/KM). Additionally, the same parameters also were calculated by a non-linear least squares regression, using the SOLVER function in Excel. The results obtained with both methods for EUGT11 and RebA are presented in Table 12, along with all the kinetic parameters of this example. Kcat is calculated based on Vmax divided by the approximate amount of protein in the assay.
In order to investigate the influence of UDP-glucose concentration in the glycosylation reaction, as well as the affinity of EUGT11 for UDP-glucose, similar kinetics analysis were performed. EUGT11 was incubated with increasing amounts of UDP-glucose (20 μM, 50 μM, 100 μM, and 200 μM), maintaining an excess of RebA (500 μM).
(§5) In the case of UGT91D2e-b, RebA concentrations assayed were 50 μM, 100 μM, 200 μM, 300 μM, 400 μM and 500 μM. Concentration of UDP-glucose was always three times the concentration of RebA and incubation was performed at 30° C., in the reaction conditions described above for UGT91D2e-b. Additionally, kinetic parameters of UGT91D2e-b towards UDP-glucose were determined. UGT91D2e-b was incubated with increasing amounts of UDP-glucose (30 μM, 50 μM, 100 μM, and 200 μM), maintaining an excess of RebA (1500 μM). incubation was performed at 30° C., in optimal conditions for UGT91D2e-b.

[5] = Screening by LC-MS of E. coli lysates, rebaudioside A as substrate; type: biochemical; settings: RebA substrate
Procedure: as §1, §2

[6] = Enzyme kinetics with RebA as substrate; type: biochemical; settings: Reb A
Procedure: as §3
To first investigate the linearity intervals, initial time-courses were done for each enzyme. EUGT11 was assayed at 37° C. for 48 h at initial concentrations of 100 μM RebA and 300 μM UDP-glucose. UGT91D2e-b was assayed at 37° C. for 24 h at initial concentrations of 200 μM RebA and 600 μM UDP-glucose. Based on these range-finding studies, it was determined that the initial 10 minutes in the case of EUGT11, and the initial 20 minutes in UGT91D2e-b would be in the linear range with respect to product formation, and therefore initial velocities of each reaction were calculated in those intervals. In the case of EUGT11, RebA concentrations assayed were 30 μM, 50 μM, 100 μM, 200 μM, 300 μM and 500 μM. Concentration of UDP-glucose was always three times the concentration of RebA and incubation was performed at 37° C. By plotting the calculated V0 as a function of the substrate concentrations, Michaelis-Menten curves were generated. By plotting the reciprocal of V0 and the reciprocal of [S], a Lineweaver-Burk graphic was obtained, with y=339.85x+1.8644; R^2=0.9759.
as §4, §5

concentration soluble in water initially (RebD solubility in water; 72 hours): ≤ 1000 µM | concentration stable for longer periods of time (RebD solubility in water; water): ≤ 500 µM
Molecule: C=C1C[C@@]23CC[C@H]4[C@@](C)(CCC[C@@]4(C)C(=O)O[C@@H]4O[C@H](CO)[C@@H](O)[C@H](O)[C@H]4O[C@@H]4O[C@H](CO)[C@@H](O)[C@H](O)[C@H]4O)[C@@H]2CC[C@]1(O[C@@H]1O[C@H](CO)[C@@H](O)[C@H](O[C@@H]2O[C@H](CO)[C@@H](O)[C@H](O)[C@H]2O)[C@H]1O[C@@H]1O[C@H](CO)[C@@H](O)[C@H](O)[C@H]1O)C3 [RebD, Rebaudioside D]

B1: UGT74G1: S. rebaudiana UGT, SEQ ID NO:1 (protein, listed as Stevia rebaudiana)
chain: MAEQQKIKKSPHVLLIPFPLQGHINPFIQFGKRLISKGVKTTLVTTIHTLNSTLNHSNTTTTSIEIQAISDGCDEGGFMSAGESYLETFKQVGSKSLADLIKKLQSEGTTIDAIIYDSMTEWVLDVAIEFGIDGGSFFTQACVVNSLYYHVHKGLISLPLGETVSVPGFPVLQRWETPLILQNHEQIQSPWSQMLFGQFANIDQARWVFTNSFYKLEEEVIEWTRKIWNLKVIGPTLPSMYLDKRLDDDKDNGFNLYKANHHECMNWLDDKPKESVVYVAFGSLVKHGPEQVEEITRALIDSDVNFLWVIKHKEEGKLPENLSEVIKTGKGLIVAWCKQLDVLAHESVGCFVTHCGFNSTLEAISLGVPVVAMPQFSDQTTNAKLLDEILGVGVRVKADENGIVRRGNLASCIKMIMEEERGVIIRKNAVKWKDLAKVAVHEGGSSDNDIVEFVSELIKA
denaturation temperature TD [1]: 86 °C | activity of GeneArt lysate as a percentage of the wild-type enzyme [2]: equivalent activity

B2: 91D2e-b: UGT91D2e double mutant C631A/T857C, amino acid modifications L211M and V286A (protein, listed as Stevia rebaudiana)
chain: MATSDSIVDDRKQLHVATFPWLAFGHILPYLQLSKLIAEKGHKVSFLSTTRNIQRLSSHISPLINVVQLTLPRVQELPEDAEATTDVHPEDIPYLKKASDGLQPEVTRFLEQHSPDWIIYDYTHYWLPSIAASLGISRAHFSVTTPWAIAYMGPSADAMINGSDGRTTVEDLTTPPKWFPFPTKVCWRKHDLARLVPYKAPGISDGYRMGMVLKGSDCLLSKCYHEFGTQWLPLLETLHQVPVVPVGLLPPEIPGDEKDETWVSIKKWLDGKQKGSVVYVALGSEALVSQTEVVELALGLELSGLPFVWAYRKPKGPAKSDSVELPDGFVERTRDRGLVWTSWAPQLRILSHESVCGFLTHCGSGSIVEGLMFGHPLIMLPIFGDQPLNARLLEDKQVGIEIPRNEEDGCLTKESVARSLRSVVVEKEGEIYKANARELSKIYNDTKVEKEYVSQFVDYLEKNARAVAIDHES
stevioside formed by lysates [3]: > 10 µM | denaturation temperature TD [1]: 79 °C | Kcat ([4]; Lineweaver-Burk plot): 0.00317 s⁻¹ | Km ([4]; Lineweaver-Burk plot): 41.9 µM | Vmax ([4]; Lineweaver-Burk plot): 0.18 µM/min | Kcat ([4]; Nonlinear Least Square Fit): 0.0033 s⁻¹ | Km ([4]; Nonlinear Least Square Fit): 45.1 µM | Vmax ([4]; Nonlinear Least Square Fit): 0.19 µM/min | RebD formed by lysates [5]: > 1.5 µM | Kcat ([6]; Lineweaver-Burk plot): 0.00683 s⁻¹ | Km ([6]; Lineweaver-Burk plot): 1580 µM | Vmax ([6]; Lineweaver-Burk plot): 0.44 µM/min | Kcat ([6]; Nonlinear Least Square Fit): 0.00533 s⁻¹ | Km ([6]; Nonlinear Least Square Fit): 1150 µM | Vmax ([6]; Nonlinear Least Square Fit): 0.34 µM/min
